The labels stand for the following.
B1: TPR 5TU (parent)
chain: GGAUCUUCUCGAUCUAACAAAAAAGACAAAUCUGCCACAAAGCUUGAGAGCAUCUUCGGAUGCAGAGGCGGCAGCCUUCGGUGGCGCGAUAGCGCCAACGUUCUCAACUAUGACACGCAAAACGCGUGCUCCGUUGAAUGGAGUUUAUCAUG

This is an account of results in the RNAGym collection of RNA variant scans (doi:10.1073/pnas.2313332121).

Variants at the floor of the assay were thinned out. A value given as a limit tells only on which side of the number the result lay.

In this data set the parent is B1. Put plainly: polymerase ribozyme fitness, log enrichment relative to wild type (log ratio); higher = more active; in vitro selection for triplet polymerase activity. The essentials:
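Only genotypes with ≥10 input reads and ≥1 read per output were kept after Illumina sequencing of input and output libraries. These libraries were PCR-built, transcribed mutants of each subunit of a heterodimeric triplet polymerase ribozyme, each put through one triplicate in vitro selection round with frozen incubation at −7 °C, gel excision of extended constructs, streptavidin-bead capture and RT-PCR. Fitness is a logarithmic ratio of genotype enrichment to wild-type enrichment, from inverse-variance-weighted replicate averages, with the logarithm in base 2.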
Consider U56C C85G C149A, for which the “polymerase ribozyme fitness (log ratio)” value is at most -4.2.

As for U56C G58U C114U A119U, the “polymerase ribozyme fitness (log ratio)” value was -1.67. Consider U56A G74U C85G G133U, for which the “polymerase ribozyme fitness (log ratio)” value is at most -4.2. In the case of C57A G68C C85A U134A U146C it was at most -4.2. For U56G G136A the value was 0.0437; for U56C C93U U101G C103U G136C, -4.09. For U56A U78A A121C the value was at most -4.2; for C57A C85U G124U U130A, -2.9; for C57A G59C A60G, 0.42. For the variant U56G A60C G81A G94U A106G, the “polymerase ribozyme fitness (log ratio)” value is -3.84. For the variant C57A C79U C93U A98U A147U, the “polymerase ribozyme fitness (log ratio)” value is -3.03. In the case of U55G G59A G83A A98C C116G U127G it was -4.04; in that of U56G U148G, -3.89; in that of U55G C93A A98U A142U, -3.92. For C57G A73U G83C G133U G143C U145C the value was at most -4.2.

As to U55A C96U U127C U134C, the “polymerase ribozyme fitness (log ratio)” value was -3.3. Take U55A C95U C105A C108G: the “polymerase ribozyme fitness (log ratio)” value was at most -4.2.

For the variant U55A C85A G100A A121G C131A, the “polymerase ribozyme fitness (log ratio)” value was at most -4.2.

As to U55G G83A A115C C123U G136U, the “polymerase ribozyme fitness (log ratio)” value was -2.92. For U56A C96U U101C U139G the value was -0.437; for U55A C93G G143A, -3.93; for U55G G62A, -2.48. In the case of U55A U56A U78C G83U A89U, the “polymerase ribozyme fitness (log ratio)” value is -0.955. In the case of C57G C85G it was -1.95; in that of U56A G74A A138G, at most -4.2. In the case of U56A C96U G126A it was -0.336. For U56G A60G G84A the value was -0.664; for U55A A60G C99G G141C, -2.6; for U56C U102G A142G, -3.95. For the variant U55G C108G, the “polymerase ribozyme fitness (log ratio)” value was at most -4.2. As for C57A A64C C129G, the “polymerase ribozyme fitness (log ratio)” value is at most -4.2. For C57A A89G A91G U145C U151G the value was at most -4.2; for C57A C95A C96U G141A, -4.07; for U55G G94A, -1.43. Consider C54U U90C G94A C131U, for which the “polymerase ribozyme fitness (log ratio)” value is at most -4.2. For U55G G80A C87U, the “polymerase ribozyme fitness (log ratio)” value was -0.574. In the case of U56A G83U, the “polymerase ribozyme fitness (log ratio)” value was -0.976. In the case of C54U U55A G86A C116G, the “polymerase ribozyme fitness (log ratio)” value is -2.2. In the case of C57G A113G it was -3.44; in that of C54U U148C, -1.84. For U56A G81A the value was -0.577. On to C57A C85A A107G, for which the “polymerase ribozyme fitness (log ratio)” value was at most -4.2. For U56A G59U C63G C87U the value was 1.72; for U55G U127G, -2.9; for U55A G94U G117U C131A G136A, at most -4.2. For C57A U61G U78G G88A U148A the value was at most -4.2; for U56G G141U, 0.498.

C57A A121U: the “polymerase ribozyme fitness (log ratio)” value is -0.0826. In the case of U56A C99G G140U it was -3.99.

For U55A C93A, the “polymerase ribozyme fitness (log ratio)” value is -2.96. In the case of U55C G62A A64C C72G G140U U144A it was at most -4.2; in that of U55C C72U A150U, 0.059; in that of C57A G83C C87U U134G U139A U144G, at most -4.2. Turning to U55A C72A U139C, the “polymerase ribozyme fitness (log ratio)” value was at most -4.2. In the case of C54U G83C C85G A138G, the “polymerase ribozyme fitness (log ratio)” value was at most -4.2. Take C57A G58U C76A C85U C96U A147G: the “polymerase ribozyme fitness (log ratio)” value is -3.03. In the case of C57A G65A it was -0.56. Regarding U55A U101G A107G A138C G141A, the “polymerase ribozyme fitness (log ratio)” value is at most -4.2. For U55A C76G G100C U109A A120G, the “polymerase ribozyme fitness (log ratio)” value is at most -4.2. In the case of U56A G58C U61A G86U C87A G100U it was at most -4.2. For C57G C96G U104G the value was -4.16; for U56G C75G C93U, -4.19.

Regarding C57A G141A G152U, the “polymerase ribozyme fitness (log ratio)” value is -3.49. For U55A G100C G126U G128C the value was at most -4.2; for U56A C96G, -0.228. In the case of U55G U56A C93A C114A it was at most -4.2. In the case of U55A C87A C108G it was at most -4.2; in that of U55C C85A A91C G126A, -4.06. U56C G94C: the “polymerase ribozyme fitness (log ratio)” value is 0.00198. As for C54U U77G A121C, the “polymerase ribozyme fitness (log ratio)” value is at most -4.2.

Regarding U55A C96G G143A, the “polymerase ribozyme fitness (log ratio)” value was -2.1.

Consider C54U G84A G92U U144A, for which the “polymerase ribozyme fitness (log ratio)” value was -1.38. For U56G G84C C116U the value was -4.17; for U55A U56A A66C G70C C108U, at most -4.2. For U56G A66C G81A C87U G117A the value was at most -4.2; for U56C U78G C85U A89G, at most -4.2; for U55G A91U A106G G117U, -4.18. For C57A A73U G84A U135A the value was -2.22; for U55G G83C U135A G136A C149A, at most -4.2; for C57A A91G U101A A142G, -4.08. As for U56G C72U, the “polymerase ribozyme fitness (log ratio)” value is -0.106. In the case of U56G C85U it was -1.42; in that of U56G C85A, -2.05.

With U56C G83A C87G C123U G141A, the “polymerase ribozyme fitness (log ratio)” value was at most -4.2.

As for U55A U61C G94U, the “polymerase ribozyme fitness (log ratio)” value is at most -4.2. For U55G A60G G133U G136C the value was at most -4.2. For U55A C85G C114A A142C U151A the value was -4.19. In the case of C57G C76U G88A G92U it was -3.96; in that of U55A A60U U101G, -0.433. As to C57A U78C C95G C99G, the “polymerase ribozyme fitness (log ratio)” value is -3.07. On to U56A U78A C79A, for which the “polymerase ribozyme fitness (log ratio)” value was at most -4.2. For U55A C79U G83A C93A A97C A138U the value was at most -4.2; for U55A A89G, -1.16. For U55A A89C the value was -0.409. In the case of U56G A142U it was -0.88; in that of U55A A115U U127G U135A U145A, -1.32; in that of U55A A137G G141A, -1.96.

For U56C G133U, the “polymerase ribozyme fitness (log ratio)” value is -4.01. For U55G U90A the value was at most -4.2. For U55C C93G the value was -3.57; for C54U G92A, -3. In the case of C54U G92U it was -0.757; in that of U56A A73C G84U U127C, at most -4.2. As to U55A G59C C103U U104G, the “polymerase ribozyme fitness (log ratio)” value was -3.29. Take U56A G81U C93U G141C: the “polymerase ribozyme fitness (log ratio)” value was -1.52. In the case of U55G G86U A89G A121C A147U it was -3. In the case of U55G C75G C76G G84U C118A U139C it was at most -4.2; in that of U55G G58C, -0.558. For C57A C72U C99A C103G G140C the value was at most -4.2; for U55A C95A G143A U144C, -3.04; for U56A C72U C76U C85U, -1.17.

For the variant C57G C93A, the “polymerase ribozyme fitness (log ratio)” value is -2.2. In the case of C57G C93G it was -4.06; in that of C57A A122C, -0.0129; in that of U56G A97C, -1.65. For the variant C57A G140A, the “polymerase ribozyme fitness (log ratio)” value was at most -4.2. For U56A A113U the value was -1.87; for U56A G84U, -1.11; for U56A G84C, -1.66. With U55A U56A G71A U82G U102G, the “polymerase ribozyme fitness (log ratio)” value is at most -4.2.

U55A C79U: the “polymerase ribozyme fitness (log ratio)” value was -2.74. For C57G A73C C87G A97G U101G U130C the value was at most -4.2; for U55G A89U C132G, -3.98; for U55C U61A U82A, -2.36.

As to U56A C69A, the “polymerase ribozyme fitness (log ratio)” value was -1.46. With C54U U56A G58A C85U C95A, the “polymerase ribozyme fitness (log ratio)” value was -1.2.

In the case of U55A C87G U101G G143A, the “polymerase ribozyme fitness (log ratio)” value was at most -4.2. As for C57G C93U A115U, the “polymerase ribozyme fitness (log ratio)” value was -3.44. For U55A C125A G141A the value was -4.12. For U55A G81C G84U C116A the value was -2.11; for U55A G84A G143A, -0.776.

For C54U U61A A106G G152C, the “polymerase ribozyme fitness (log ratio)” value is at most -4.2. As to U56G A73G U101C A119G U148C, the “polymerase ribozyme fitness (log ratio)” value is -4.08. In the case of C57G A73G C116U it was -0.324. In the case of U56G G84U it was -2.16. Consider U55C C95U C103A, for which the “polymerase ribozyme fitness (log ratio)” value is -1.54. Turning to U56A C132G A137U, the “polymerase ribozyme fitness (log ratio)” value is -4.03.

Regarding U55A C85A C125A, the “polymerase ribozyme fitness (log ratio)” value was -1.75.

For the variant U55A C76A A115G A121C, the “polymerase ribozyme fitness (log ratio)” value was -1.09. For U56A C96A A138G the value was at most -4.2; for U56A C93U A147G, -1.96; for C57G C87A U144C, -3.75. For U55C A119G U145A the value was -0.113; for U55A C79U C85U, -3.3; for C54U U151C, -3.65. With U55A A73U C99U U145C, the “polymerase ribozyme fitness (log ratio)” value is at most -4.2. For the variant U56G G83U C125U, the “polymerase ribozyme fitness (log ratio)” value is -1.82. In the case of U55A G81A G86A U109G A150G, the “polymerase ribozyme fitness (log ratio)” value was at most -4.2. For U56G G84A A91G A115G the value was -4.1; for C54U G86C, -3.47. On to C54U U78G C96G A113U, for which the “polymerase ribozyme fitness (log ratio)” value is at most -4.2.

For the variant U56G G59A, the “polymerase ribozyme fitness (log ratio)” value is -1.14.

Regarding U55G U61G C76U C87A U101G U134G G136U, the “polymerase ribozyme fitness (log ratio)” value was at most -4.2. In the case of U56A C63U A64U G84A G128A it was at most -4.2; in that of U56A U145G, -0.287; in that of U55A U56A C69U C79U G86A A91U A106C A121G C125U A142C, at most -4.2. In the case of U55A G62U C63G C87U A98U A120U C149G it was at most -4.2. For U55A G58C A97G the value was 0.512; for U56A U101G, 0.0793; for U55A G92A C125A, -3.46. On to U56A G58A C103A C125A, for which the “polymerase ribozyme fitness (log ratio)” value is -0.231. In the case of U55A A121C it was -0.369; in that of U55G C118U, -1.23; in that of U55A G67C C85A G86U G124U, at most -4.2. With C57A G86U, the “polymerase ribozyme fitness (log ratio)” value was -1.32. C57A G62A G86A A113G A120U U127C G136A A142C: the “polymerase ribozyme fitness (log ratio)” value was at most -4.2. For U55C U127A U139G the value was -3.31.
